Experimental data reported in PMC5050560.

How the values were obtained:
[1] = molecular target: cdPadR1 (PadR family transcription regulator, product of CDR20291_0991, Clostridium difficile R20291) (Clostridium difficile R20291); test: SEC
[2] = molecular target: cdPadR1 (PadR family transcription regulator, product of CDR20291_0991, Clostridium difficile R20291) (Clostridium difficile R20291); test: SEC-MALS
[3] = molecular target: cdPadR1^W94A (Clostridium difficile R20291); test: SEC-MALS

Row | Substance | stoichiometry N [1] | stoichiometry N [2] | stoichiometry N [3]
1 | cdPadR1 (PadR family transcription regulator, product of CDR20291_0991, Clostridium difficile R20291) (from UniProt A0A9R0CDW8 1-109) (natural protein) | 2 | 2 | 
2 | cdPadR1^W94A (from UniProt A0A9R0CDW8 1-109) (natural protein) |  |  | 2
